This is an account of results in publication PMC4764573, “A deep proteomics perspective on CRM1-mediated nuclear export and nucleocytoplasmic partitioning” (eLife, 2015).

This experiment addresses mmCRM1 (mouse CRM1), in solution in the direct binding assay (mouse, UniProt Q6P5F9 1-1071). In words: pull-down; 250 pmoles His14-ZZ-bdSUMO tagged candidate on 20 μl anti-ZZ beads; 300 pmoles mmCRM1 with or without 1500 pmoles RanGTP (hsRanQ69L^5-180) in 500 µl; 3 hr at 4°C; elution by bdSENP1 protease; SDS-PAGE and Coomassie-staining. The conditions noted are these: both partners purified.

mmCRM1 (mouse CRM1), in solution in the direct binding assay, sequence (Q6P5F9 whole entry): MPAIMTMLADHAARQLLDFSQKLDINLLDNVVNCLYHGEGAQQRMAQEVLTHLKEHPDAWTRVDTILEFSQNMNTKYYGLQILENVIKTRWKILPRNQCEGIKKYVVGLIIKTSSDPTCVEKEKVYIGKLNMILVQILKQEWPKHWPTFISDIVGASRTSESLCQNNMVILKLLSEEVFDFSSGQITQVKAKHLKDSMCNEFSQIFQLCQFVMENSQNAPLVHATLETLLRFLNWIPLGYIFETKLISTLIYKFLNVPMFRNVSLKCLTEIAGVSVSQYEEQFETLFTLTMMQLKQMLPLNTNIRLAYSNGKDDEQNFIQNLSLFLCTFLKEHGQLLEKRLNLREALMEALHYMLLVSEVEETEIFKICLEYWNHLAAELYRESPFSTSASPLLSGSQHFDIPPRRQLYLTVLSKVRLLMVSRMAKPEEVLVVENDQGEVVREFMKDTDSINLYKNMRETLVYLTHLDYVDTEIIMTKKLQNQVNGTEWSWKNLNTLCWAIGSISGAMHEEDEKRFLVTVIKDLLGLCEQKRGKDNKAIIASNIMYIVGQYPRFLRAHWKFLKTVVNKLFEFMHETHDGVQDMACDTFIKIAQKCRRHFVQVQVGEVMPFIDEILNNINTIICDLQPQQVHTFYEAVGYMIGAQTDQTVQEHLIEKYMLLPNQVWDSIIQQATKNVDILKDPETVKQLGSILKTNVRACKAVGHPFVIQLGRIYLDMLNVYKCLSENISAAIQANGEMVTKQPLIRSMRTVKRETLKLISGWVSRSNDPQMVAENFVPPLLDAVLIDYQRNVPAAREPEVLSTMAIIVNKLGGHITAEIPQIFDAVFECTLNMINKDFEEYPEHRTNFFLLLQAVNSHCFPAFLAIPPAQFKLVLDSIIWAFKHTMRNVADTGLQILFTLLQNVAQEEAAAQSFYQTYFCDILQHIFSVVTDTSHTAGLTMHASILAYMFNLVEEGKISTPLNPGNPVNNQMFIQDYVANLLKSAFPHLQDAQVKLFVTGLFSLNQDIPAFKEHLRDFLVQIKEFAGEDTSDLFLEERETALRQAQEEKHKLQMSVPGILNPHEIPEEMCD

B1: H14-ZZ-Sumo tagged ARP2/3 1b (natural protein)
chain: not shown
notes: subunit 1b of the ARP2/3 complex, Xenopus; see Supplementary file 6; also called subunit 1b of the ARP2/3 complex; source: E. coli, purified (Ni2+ chelate chromatography, imidazole elution)
As for B1, the binding result was “binds”.
